Data set [1] has as its target T1, HSA (Homo sapiens, UniProt P02768).
T1 construct: purchased Sigma-Aldrich
Description: Steady-state fluorescence titration with HSA (binding constant Kb). The following applies: Py-LYQLENY 3 µM in buffer, fluorescence intensity as function of HSA concentration (plateau at 45 µM), Equation (3). How it is done: The prepared samples were used within 24 h.
Steady-state absorption and fluorescence spectra were recorded at a resolution of 0.5 nm using an Aminco Bowman AB2 Series spectrofluorometer (Thermo Fisher Scientific Inc., Waltham, MA, USA). Unless otherwise indicated, in emission measurements, the excitation wavelength was 337 nm, and excitation and emission slits were set to 2.0 and 0.5 nm, respectively.
For Py-LYQLENY conjugate (2), the binding constants Kb were calculated according to Equation (3) proposed by Kuzmin et al.:θ = Kb·[HSA] / (1+ Kb·[HSA])(3) where [HSA] is the concentration of the albumin [61], θ = (I − I0)/(I∞ − I0) is the fraction of the pyrene probe bound with HSA, I0 is fluorescence intensity without HSA, I∞ is fluorescence intensity with [HSA] = 45 µM (reaching a plateau, Figure 6b) and I is the fluorescence intensity for subsequent […].
The calculated value also confirmed existence of interactions between 2 and HSA with pyrene fragment presented on less polar environment inside protein. […] The binding constants 1.5 ± 0.3 × 10^6 dm^3 mol^−1 to 6.5 ± 0.4 × 10^7 dm^3 mol^−1 were calculated for complexes of HSA with Py-hydrophobic peptide.

The nature of data set [2]: Solubility and aggregation of pyrene-labeled peptides seen by absorption and fluorescence. The following applies: for solubility in ethanol and methanol: judged from narrow absorption bands. The procedure: The solutions of HSA (concentration = 3 10^−5 M) were prepared by dissolving the protein in 0.01 M of phosphate buffer saline (PBS, [NaCl] = 150 mM), pH = 7.2. […] The prepared samples were used within 24 h. […] The concentration of HSA was verified spectrophotometrically using the molar absorption coefficient 35500 M^−1cm^−1 at 280 nm for HSA [61]. In order to ensure complete protein hydration, the solutions were stored at room temperature for at least 1 h before measurements. The samples for fluorescence measurements were saturated with argon or deaerated with a vacuum pump.
The absorbances of Py-LYQLENY and Py-VEALYL were determined in 10 mM standard PBS solution, ethanol, methanol, and 10 mM TX-100. The spectra were normalized to a maximum of S0→S2 […]
band (Figure 4, panel I).
(1 picture or pasted object on this page, not shown here)
Fig. S7. Panel I: Normalized absorption spectra of Py-LYQLENY (a) and Py-VEALYL (b) in different solvents. Panel II: Normalized emission spectra of Py-LYQLENY (a) and Py-VEALYL (b) in different […]
We also investigated the solubility of Py-LYQLENY conjugate (2) in dioxane.
This allowed the molar coefficient absorbance to be determined, using the gravimetric […]
The addition of a small amount of concentrated
Py-LYQLENY stock solution in dioxane to the buffer solution enabled the molar absorbance coefficient […]
In order to investigate the possible aggregation of the fluorescence labeled insulin hot spots in the buffer solution, spectrophotometric titration was performed for Py -LYQLENY (2) in a range of concentration from 2.9 to 56.4 µM. Titration was carried out until there were no significant changes in fluorescence intensity.
The fluorescence spectra were recorded for each concentration (Figure 5a). After normalization of the […]
Fig. S8. Fluorescence spectra of Py-LYQLENY in PBS solutions recorded for the given probe

Data set [3] in a line: Absorption spectra of the filtered HSA/Py-Ins complex on storage. The following applies: [Py-Ins] 16.38 μM, [HSA] 30 μM, filtered through 0.2 µm syringe filter, spectra after 2, 4 and 6 days. Type of data set: physicochemical. The procedure: Broad absorption bands can indicate the presence of Py-Ins aggregates. Therefore, a solution of Py-Ins (1) complex with HSA was filtered through a 0.2 µm syringe filter in order to remove any Py-Ins aggregates, and the stability of the complex was tested for a further 6 days. […] This may indicate that the Py-Ins (1) conjugate was completely bound to the HSA, and that the protein has a protective role in the aggregation process. Additional confirmation of this was provided by the observed linear increase in Py-Ins absorbance for the samples diluted with 30 µM HSA solution (Figure 2, panel IIb).

Data set [4] in a line: Time-resolved fluorescence decay of the pyrene label in buffer or TX-100 (no protein). Format: physicochemical. The following applies: λexc 337 nm; for <τ> average fluorescence lifetime / A1 (amplitude of fast component, aggregate fraction) / A2 (amplitude of slow component, monomer) / τ1 (fast component, aggregate form) / τ2 (slow component, monomer form): [Py-Ins] 16.38 μM, λem 405 nm; for <τ> average fluorescence lifetime: Equation (2); for A1 (amplitude of fast component, aggregate fraction) / A2 (amplitude of slow component, monomer) / τ1 (fast component, aggregate form) / τ2 (slow component, monomer form): bi-exponential fit.

Data set [5] has as its target T1, HSA. The data set can be described thus: Time-resolved fluorescence decay of the pyrene label in the presence of HSA. Type of data set: binding. The following applies: for <τ> average fluorescence lifetime / A1 (amplitude of fast component, aggregate fraction) / A2 (amplitude of slow component, monomer) / τ1 (fast component, aggregate form) / τ2 (slow component, monomer form): 30 μM HSA in PBS, [Py-Ins] 16.38 μM, λem 405 nm; for <τ> average fluorescence lifetime: Equation (2); for A1 (amplitude of fast component, aggregate fraction) / A2 (amplitude of slow component, monomer) / τ1 (fast component, aggregate form) / τ2 (slow component, monomer form): bi-exponential fit. The procedure:
The solutions of HSA (concentration = 3 10^−5 M) were prepared by dissolving the protein in 0.01 M of phosphate buffer saline (PBS, [NaCl] = 150 mM), pH = 7.2. […] The prepared samples were used within 24 h. […] In order to ensure complete protein hydration, the solutions were stored at room temperature for at least 1 h before measurements. The samples for fluorescence measurements were saturated with argon or deaerated with a vacuum pump.
Time-resolved measurements of HSA fluorescence were performed using a flash photolysis system based on a GL-3300 nitrogen laser (Photon Technology International, Birmingham, NJ, USA) providing single light pulses with a wavelength of 337.1 nm, duration ~800 ps, and average energy 100 µJ. The detection system consisted of a Baush&Lomb monochromator (Rochester, NY, USA), Hamamatsu 1P28 photomultiplier, and a PS325 power supply system (Stanford Research, Sunnyvale, CA, USA). […] All experiments were carried out at room temperature (25 ± 1 °C) using quartz cells with an optical length of 1 cm.

Data set [6] concerns the target T1, HSA. Description: Quenching of pyrene fluorescence by acrylamide (Stern-Volmer) in buffer and HSA solution. Type of data set: binding. The following applies: [HSA] 30 µM, Stern-Volmer plots. The procedure: Additionally, we examined the quenching of Py-LYQLENY and Py-VEALYL by acrylamide (ACR) in the buffer solution and HSA solution (Figure 5 Stern-Volmer plots).
Figure 5 Stern–Volmer plots for quenching of Py-LYQLENY and Py-VEALYL by ACR in the buffer and HSA solution. I0 is fluorescence intensity without quencher, I—fluorescence intensity at various concentrations of ACR, [HSA] = 30 µM.

Residues, ends and D or L forms follow the SMILES beside them. *: point of attachment. Butanoyl(4-pyren-1-yl) = O=C(CCCc1ccc2ccc3cccc4ccc1c2c34)*

For the compound `CC(C)C[C@H](NC(=O)CCCc1ccc2ccc3cccc4ccc1c2c34)C(=O)N[C@@H](Cc1ccc(O)cc1)C(=O)N[C@@H](CCC(N)=O)C(=O)N[C@@H](CC(C)C)C(=O)N[C@@H](CCC(=O)O)C(=O)N[C@@H](CC(N)=O)C(=O)N[C@@H](Cc1ccc(O)cc1)C(=O)O` [Py-LYQLENY, Py-LYQLENY-OH] ({Butanoyl(4-pyren-1-yl)}-LYQLENY-OH), in data set [1], the “binding constant Kb” value is on record as 2 × 10^5 dm^3 mol^−1. Besides, in data set [2], the “solubility in aqua media in the presence of HSA” value was “increased significantly”; the solubility in dioxane result is “dissolved relatively well”; the “solubility in ethanol and methanol” value was “good”. For the same compound, the “solubility in the buffer solution compared with dioxane” value in data set [2] (PBS) is given as “lower”.

Turning to “Py-Ins: derivative of human insulin labeled with 4-(1-pyrene)butyric acid”, the “stability of the HSA complex / aggregation: changes of absorption spectra on storage” value in data set [3] is recorded as “no changes were observed”. Also, the “<τ> average fluorescence lifetime” value in data set [4] (20 mM TX-100, filtered) turned out to be 161.2 ns; in data set [4] (20 mM TX-100, non-filtered) it was 147.9 ns; in data set [4] (PBS buffer, non-filtered) it was 86.6 ns; in data set [5] (filtered, λexc 337 nm) it was 145.6 ns; in data set [5] (non-filtered, λexc 337 nm), 133.6 ns. The “A1 (amplitude of fast component, aggregate fraction)” value in data set [4] (20 mM TX-100, filtered) is on record as 0.1; in data set [4] (20 mM TX-100, non-filtered), 0.2; in data set [4] (PBS buffer, filtered), 0.2; in data set [4] (PBS buffer, non-filtered), 0.5; in data set [5] (filtered, λexc 337 nm), 0.2; in data set [5] (non-filtered, λexc 337 nm) it was 0.4. In addition, the “A2 (amplitude of slow component, monomer)” value is on record as 0.9 in data set [4] (20 mM TX-100, filtered); 0.8 in data set [4] (20 mM TX-100, non-filtered); 0.8 in data set [4] (PBS buffer, filtered); 0.5 in data set [4] (PBS buffer, non-filtered); 0.8 in data set [5] (filtered, λexc 337 nm); 0.6 in data set [5] (non-filtered, λexc 337 nm). Besides, the “τ1 (fast component, aggregate form)” value in data set [4] (20 mM TX-100, filtered) is reported as 18.2 ns; in data set [4] (PBS buffer, filtered) it was 20.1 ns; in data set [5] (filtered, λexc 337 nm), 19.4 ns; in data set [5] (non-filtered, λexc 337 nm), 19.1 ns. The “τ2 (slow component, monomer form)” value in data set [4] (20 mM TX-100, filtered) came out at 162.0 ns; in data set [4] (20 mM TX-100, non-filtered), 152.7 ns; in data set [4] (PBS buffer, filtered) it was 98.8 ns; in data set [4] (PBS buffer, non-filtered), 98.4 ns; in data set [5] (filtered, λexc 337 nm), 150.4 ns; in data set [5] (non-filtered, λexc 337 nm) it was 143.8 ns. Besides, the aggregate fraction result in data set [5] (diluted Py-Ins/HSA solutions, [Py-Ins]/[HSA] = 0.11, data not shown) is on record as “about 20%”.

On to `CC(C)C[C@H](NC(=O)[C@H](Cc1ccc(O)cc1)NC(=O)[C@H](CC(C)C)NC(=O)[C@H](C)NC(=O)[C@H](CCC(=O)O)NC(=O)[C@@H](NC(=O)CCCc1ccc2ccc3cccc4ccc1c2c34)C(C)C)C(=O)O` [Py-VEALYL, Py-VEALYL-OH] ({Butanoyl(4-pyren-1-yl)}-VEALYL-OH), for which the “quenching by acrylamide in the presence of HSA versus buffer (slope of I0/I vs. ACR concentration)” value in data set [6] is listed as “protected against interaction with the quencher”. In addition, the “τPBS, lifetime of fluorescence decay in PBS” value in data set [4] (PBS, mono-exponential kinetics, λem 400 nm, short lifetime taken as sign of aggregation) is reported as 43.9 ns. Further, in data set [5] ([HSA] 30 μM, bi-exponential kinetics, average lifetime by Equation (2), λexc 337 nm, λem 400 nm), the “τHSA, lifetime of fluorescence decay in the presence of HSA” value came to 153.9 ns. Also, in data set [2], the “solubility in aqua media in the presence of HSA” value is recorded as “increased significantly”; the “solubility in ethanol and methanol” value is recorded as “good”. In data set [2] (0.01 M PBS, 150 mM NaCl, pH 7.2), the “aggregation in buffer solution” value is “partial aggregation”.

Source of the values: publication PMC7601681, “Human Serum Albumin Binds Native Insulin and Aggregable Insulin Fragments and Inhibits Their Aggregation” (Biomolecules, 2020).
